Results reported in article PMC9352680, “A comprehensive thermodynamic model for RNA binding by the Saccharomyces cerevisiae Pumilio protein PUF4”.
Changes are numbered by the printed parent chain. Names may count otherwise.

B1: Id_ii_S2_P4E.4_K4.3_C4.2_[C-2T]_[T-1C]_H4.3_A4.1_F4.1_T4.2_[G10A]_[T11A] (ssRNA)
RNA: UUUGAUUAAUAUGAUAUCGUUCUUUCUUCACACUAUUAAAUUCUUUCUCGAUAUCAUAUUAAUCUUU
B2: Id_ii_S2_P4E.4_K4.3_C4.2_[C-2T]_[T-1A]_H4.3_A4.1_F4.1_T4.2_[G10C]_[T11A] (ssRNA)
RNA: B1 RNA with C29A, A39C
B3: Id_ii_S2_P4E.4_K4.3_C4.2_[C-2T]_[T-1A]_H4.3_A4.1_F4.1_T4.2_[G10T]_[T11A] (ssRNA)
RNA: B1 RNA with C29A, A39U
B4: Id_ii_S2_P4E.4_K4.3_C4.2_[C-2T]_[T-1A]_H4.3_A4.1_F4.1_T4.2_[G10T] (ssRNA)
RNA: B1 RNA with C29A, A39U, A40U
B5: Id_ii_S2_P4E.4_K4.3_C4.2_[C-2T]_[T-1A]_H4.3_A4.1_F4.1_T4.2_[G10A]_[T11A] (ssRNA)
RNA: B1 RNA with C29A
B6: Id_ii_S2_P4E.4_K4.3_C4.2_[C-2T]_[T-1A]_H4.3_A4.1_F4.1_T4.2 (ssRNA)
RNA: B1 RNA with C29A, A39G, A40U
B7: Id_ii_S2_P4E.4_K4.3_C4.2_[C-2T]_H4.3_A4.1_F4.1_T4.2_[G10C]_[T11C] (ssRNA)
RNA: B1 RNA with C29U, A39C, A40C
B8: Id_ii_S2_P4E.4_K4.3_C4.2_[C-2T]_H4.3_A4.1_F4.1_T4.2_[G10C]_[T11A] (ssRNA)
RNA: B1 RNA with C29U, A39C
B9: Id_ii_S2_P4E.4_K4.3_C4.2_[C-2T]_H4.3_A4.1_F4.1_T4.2_[G10A]_[T11C] (ssRNA)
RNA: B1 RNA with C29U, A40C
B10: Id_ii_S2_P4E.4_K4.3_C4.2_[C-2T]_H4.3_A4.1_F4.1_T4.2_[G10A]_[T11A] (ssRNA)
RNA: B1 RNA with C29U
B11: Id_ii_S2_P4E.4_K4.3_C4.2_[C-2T]_H4.3_A4.1_F4.1_T4.2_[G10A] (ssRNA)
RNA: B1 RNA with C29U, A40U
B12: Id_ii_S2_P4E.4_K4.3_C4.2_[C-2T]_H4.3_A4.1_F4.1_T4.2 (ssRNA)
RNA: B1 RNA with C29U, A39G, A40U
B13: Id_ii_S2_P4E.4_K4.3_C4.2_[C-2A]_[T-1C]_H4.3_A4.1_F4.1_T4.2_[G10C] (ssRNA)
RNA: B1 RNA with U28A, A39C, A40U
B14: Id_ii_S2_P4E.4_K4.3_C4.2_[C-2A]_[T-1C]_H4.3_A4.1_F4.1_T4.2_[G10T]_[T11C] (ssRNA)
RNA: B1 RNA with U28A, A39U, A40C
B15: Id_ii_S2_P4E.4_K4.3_C4.2_[C-2A]_[T-1C]_H4.3_A4.1_F4.1_T4.2_[G10T]_[T11A] (ssRNA)
RNA: B1 RNA with U28A, A39U
B16: Id_ii_S2_P4E.4_K4.3_C4.2_[C-2A]_[T-1C]_H4.3_A4.1_F4.1_T4.2_[G10A]_[T11A] (ssRNA)
RNA: B1 RNA with U28A
B17: Id_ii_S2_P4E.4_K4.3_C4.2_[C-2A]_[T-1A]_H4.3_A4.1_F4.1_T4.2_[G10C]_[T11C] (ssRNA)
RNA: B1 RNA with U28A, C29A, A39C, A40C
B18: Id_ii_S2_P4E.4_K4.3_C4.2_[C-2A]_[T-1A]_H4.3_A4.1_F4.1_T4.2_[G10C] (ssRNA)
RNA: B1 RNA with U28A, C29A, A39C, A40U
B19: Id_ii_S2_P4E.4_K4.3_C4.2_[C-2A]_[T-1A]_H4.3_A4.1_F4.1_T4.2_[G10T]_[T11C] (ssRNA)
RNA: B1 RNA with U28A, C29A, A39U, A40C
B20: Id_ii_S2_P4E.4_K4.3_C4.2_[C-2A]_[T-1A]_H4.3_A4.1_F4.1_T4.2_[G10A] (ssRNA)
RNA: B1 RNA with U28A, C29A, A40U
B21: Id_ii_S2_P4E.4_K4.3_C4.2_[C-2A]_H4.3_A4.1_F4.1_T4.2_[G10C]_[T11G] (ssRNA)
RNA: B1 RNA with U28A, C29U, A39C, A40G
B22: Id_ii_S2_P4E.4_K4.3_C4.2_[C-2A]_H4.3_A4.1_F4.1_T4.2_[G10C]_[T11C] (ssRNA)
RNA: B1 RNA with U28A, C29U, A39C, A40C
B23: Id_ii_S2_P4E.4_K4.3_C4.2_[C-2A]_H4.3_A4.1_F4.1_T4.2_[G10C]_[T11A] (ssRNA)
RNA: B1 RNA with U28A, C29U, A39C
B24: Id_ii_S2_P4E.4_K4.3_C4.2_[C-2A]_H4.3_A4.1_F4.1_T4.2_[G10C] (ssRNA)
RNA: B1 RNA with U28A, C29U, A39C, A40U
B25: Id_ii_S2_P4E.4_K4.3_C4.2_[C-2A]_H4.3_A4.1_F4.1_T4.2_[G10T]_[T11C] (ssRNA)
RNA: B1 RNA with U28A, C29U, A39U, A40C
B26: Id_ii_S2_P4E.4_K4.3_C4.2_[C-2A]_H4.3_A4.1_F4.1_T4.2_[G10T] (ssRNA)
RNA: B1 RNA with U28A, C29U, A39U, A40U
B27: Id_ii_S2_P4E.4_K4.3_C4.2_[C-2A]_H4.3_A4.1_F4.1_T4.2_[G10A]_[T11C] (ssRNA)
RNA: B1 RNA with U28A, C29U, A40C

Molecular target: T1, PUF4 RNA-binding domain (Saccharomyces cerevisiae, UniProt P25339 537-888)
T1 sequence: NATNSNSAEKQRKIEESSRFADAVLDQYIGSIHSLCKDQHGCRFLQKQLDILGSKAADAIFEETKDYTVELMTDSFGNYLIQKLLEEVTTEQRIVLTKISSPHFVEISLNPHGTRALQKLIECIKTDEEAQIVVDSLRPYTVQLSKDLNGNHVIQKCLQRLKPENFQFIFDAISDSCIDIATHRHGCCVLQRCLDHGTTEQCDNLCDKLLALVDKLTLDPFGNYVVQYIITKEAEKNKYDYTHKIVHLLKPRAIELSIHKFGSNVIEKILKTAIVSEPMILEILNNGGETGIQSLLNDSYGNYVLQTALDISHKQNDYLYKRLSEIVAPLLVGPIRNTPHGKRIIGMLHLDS
Assay: Mg; RNA-MaP; 20 mM Na-HEPES pH 7.4, 30 mM KOAc, 0.75 mM MgCl2, 0.1% Tween-20, 5% glycerol, 0.1 mg/mL BSA, 2 mM DTT; 25 C; 0.0125-409.6 nM protein
Details: tags: N-His6-TEV cleaved; C-SNAP kept, Cy3B-labelled; label: tethered on chip by stalled RNA polymerase

Row | Binder | Kd [nM]
1 | B1 | > 2300
2 | B2 | 2190
3 | B3 | 882
4 | B4 | 2160
5 | B5 | > 2300
6 | B6 | > 2300
7 | B7 | 306
8 | UCUCUUUGUACUAGUAUCUCUU (ssRNA) [Ib_S1_P5E.1_K5.1_C5.1_H5.1_A5.1_[T5C]_F5.1_[T8G]_T5.1] | 23.5
9 | B8 | 198
10 | B9 | 305
11 | B10 | 806
12 | B11 | 445
13 | B12 | 2020
14 | B13 | > 2300
15 | B14 | > 2300
16 | B15 | 592
17 | B16 | > 2300
18 | B17 | > 2300
19 | UCUCUUUGUAAUAGUAUCUCUU (ssRNA) [Ib_S1_P5E.1_K5.1_C5.1_H5.1_A5.1_[T5A]_F5.1_[T8G]_T5.1] | 21.4
20 | B18 | > 2300
21 | B19 | > 2300
22 | B20 | > 2300
23 | B21 | 47.6
24 | B22 | 10.8
25 | B23 | 11.4
26 | B24 | 9.11
27 | B25 | 10.3
28 | B26 | 12.3
29 | B27 | 9.57
